From PMC11242883 come the findings set out here.

For assay [1], the target named is eel follicle-stimulating hormone receptor (eel FSHR) on CHO-K1 cells (eel).
Assay [2] deals with eel follicle-stimulating hormone receptor (eel FSHR) on HEK293 cells (eel).

On to “recombinant single-chain eel follicle-stimulating hormone mutant with the eCG β-subunit CTP linker (amino acids 115–149) between the β-subunit and the α-subunit (eel FSH-M) (from UniProt P08751 135-169) (ligand)”, for which, in assay [1], the cAMP production (HTRF) in CHO-K1 cells transiently expressing eel FSHR, 30 min, dose-response: EC50 came out at 0.129 µg/mL. The pERK1/2 HTRF ratio in HEK293 cells transiently expressing eel FSHR, time course 0-30 min after agonist; peak at 5 min in assay [2] is 7090.

“recombinant single-chain (tethered) eel follicle-stimulating hormone, wild type (eel FSH β/α-wt) (ligand)” had a cAMP production (HTRF) in CHO-K1 cells transiently expressing eel FSHR, 30 min, dose-response: EC50 in assay [1] of 0.16 µg/mL. Moreover, the pERK1/2 HTRF ratio in HEK293 cells transiently expressing eel FSHR, time course 0-30 min after agonist; peak at 5 min in assay [2] worked out at 7460.
